This is an account of results in patent publication US20240417437A1, “Linker Polypeptides” (Trutino Biosciences Inc., priority 2021, published 2024).

The format of data set [1] is binding. To be noted: for fusion protein binding to heparin: pH 6. The protocol:
96-well plates were coated with 10 μg/mL of Heparin-BSA conjugate (provided by Dr. Mueller, Boerhinger Ingelheim) or control BSA for 18-22 hours at room temperature on shaker (350 rpm). After washing, wells are blocked with 2% milk powder in PBS-0.05% Tween 20 or PBS-0.05% Tween 20/1% BSA for 90 minutes. The fusion proteins were then titrated in either 2% milk powder in PBS-0.05% Tween 20 or 1% BSA/PBS-0.05% Tween 20, pH 7.5 and/or pH 6, and added for 2 hours at room temperature with shaking. After washing, an anti-mouse IL-2 biotin-labelled detection antibody (JES6-5H4, ThermoFisher), anti-6×-His Tag HRP conjugate antibody (Invitrogen, 1 mg/mL, cat #MA1-21315-HRP), or anti-human IgG HRP conjugate antibody (SouthernBiotech) was added, and binding was detected using Ultra Streptavidin HRP (ThermoFisher). The plate was developed by adding the chromogenic tetramethylbenzidine substrate (Ultra TMB, ThermoFisher). The reaction was stopped by addition of 0.5 M H2SO4, and the absorbance was read at 450-650 nm. […] Moreover, when the same pH-dependent heparin binding motif was inserted into different locations of IL-2 fusion proteins, all resulting proteins bound heparin at pH 6 with similar high affinities (FIGS. 4F and 4G). Likewise, similar binding affinities were observed when another heparin targeting sequence was engineered into different sites of IL-2 fusion proteins (FIGS. 4H-4I). […] The heparin binding activity is recovered when a heparin binding motif is engineered into the linker polypeptide-IL-15 fusion protein (Construct WWW). Finally, linker polypeptide-IL-2 fusion proteins engineered with a heparin binding site show about 30-fold enhanced binding to heparin in vitro compared to constructs lacking a heparin binding site (Construct EEE and Construct NNNN vs. Construct AAA and Construct NNN, respectively) as shown in FIG. 4M.

The target in the next data set is fibronectin (Homo sapiens, UniProt P02751). Nature of the data set: Fusion protein plate binding assay on fibronectin. Here is the method:
A similar plate-based assay was developed to interrogate binding of IL-2 fusion variants to fibronectin. 96-well plates were coated with fibronectin (4-10 μg/mL, Sigma) or control BSA for 18-22 hours at room temperature on shaker (350 rpm). After washing, wells were blocked with 2% milk powder in PBS-0.05% Tween 20 or protein-free blocking buffer (Pierce) for 90 min, then fusion proteins were titrated in blocking buffer-0.1% Tween 20, pH 7.5 and/or pH 6, and added for 1 hour at room temperature with shaking. After washing, an anti-mouse IL-2 biotin-labelled detection antibody (JES6-5H4, ThermoFisher) or anti-human IgG HRP conjugate antibody (SouthernBiotech) was added, and binding was detected using Ultra Streptavidin HRP (ThermoFisher). The plate was developed by adding the chromogenic tetramethylbenzidine substrate (Ultra TMB, ThermoFisher). The reaction was stopped by addition of 0.5 M H2SO4, and the absorbance was read at 450-650 nm.

Sequence of fibronectin (P02751 32-2477, species assumed): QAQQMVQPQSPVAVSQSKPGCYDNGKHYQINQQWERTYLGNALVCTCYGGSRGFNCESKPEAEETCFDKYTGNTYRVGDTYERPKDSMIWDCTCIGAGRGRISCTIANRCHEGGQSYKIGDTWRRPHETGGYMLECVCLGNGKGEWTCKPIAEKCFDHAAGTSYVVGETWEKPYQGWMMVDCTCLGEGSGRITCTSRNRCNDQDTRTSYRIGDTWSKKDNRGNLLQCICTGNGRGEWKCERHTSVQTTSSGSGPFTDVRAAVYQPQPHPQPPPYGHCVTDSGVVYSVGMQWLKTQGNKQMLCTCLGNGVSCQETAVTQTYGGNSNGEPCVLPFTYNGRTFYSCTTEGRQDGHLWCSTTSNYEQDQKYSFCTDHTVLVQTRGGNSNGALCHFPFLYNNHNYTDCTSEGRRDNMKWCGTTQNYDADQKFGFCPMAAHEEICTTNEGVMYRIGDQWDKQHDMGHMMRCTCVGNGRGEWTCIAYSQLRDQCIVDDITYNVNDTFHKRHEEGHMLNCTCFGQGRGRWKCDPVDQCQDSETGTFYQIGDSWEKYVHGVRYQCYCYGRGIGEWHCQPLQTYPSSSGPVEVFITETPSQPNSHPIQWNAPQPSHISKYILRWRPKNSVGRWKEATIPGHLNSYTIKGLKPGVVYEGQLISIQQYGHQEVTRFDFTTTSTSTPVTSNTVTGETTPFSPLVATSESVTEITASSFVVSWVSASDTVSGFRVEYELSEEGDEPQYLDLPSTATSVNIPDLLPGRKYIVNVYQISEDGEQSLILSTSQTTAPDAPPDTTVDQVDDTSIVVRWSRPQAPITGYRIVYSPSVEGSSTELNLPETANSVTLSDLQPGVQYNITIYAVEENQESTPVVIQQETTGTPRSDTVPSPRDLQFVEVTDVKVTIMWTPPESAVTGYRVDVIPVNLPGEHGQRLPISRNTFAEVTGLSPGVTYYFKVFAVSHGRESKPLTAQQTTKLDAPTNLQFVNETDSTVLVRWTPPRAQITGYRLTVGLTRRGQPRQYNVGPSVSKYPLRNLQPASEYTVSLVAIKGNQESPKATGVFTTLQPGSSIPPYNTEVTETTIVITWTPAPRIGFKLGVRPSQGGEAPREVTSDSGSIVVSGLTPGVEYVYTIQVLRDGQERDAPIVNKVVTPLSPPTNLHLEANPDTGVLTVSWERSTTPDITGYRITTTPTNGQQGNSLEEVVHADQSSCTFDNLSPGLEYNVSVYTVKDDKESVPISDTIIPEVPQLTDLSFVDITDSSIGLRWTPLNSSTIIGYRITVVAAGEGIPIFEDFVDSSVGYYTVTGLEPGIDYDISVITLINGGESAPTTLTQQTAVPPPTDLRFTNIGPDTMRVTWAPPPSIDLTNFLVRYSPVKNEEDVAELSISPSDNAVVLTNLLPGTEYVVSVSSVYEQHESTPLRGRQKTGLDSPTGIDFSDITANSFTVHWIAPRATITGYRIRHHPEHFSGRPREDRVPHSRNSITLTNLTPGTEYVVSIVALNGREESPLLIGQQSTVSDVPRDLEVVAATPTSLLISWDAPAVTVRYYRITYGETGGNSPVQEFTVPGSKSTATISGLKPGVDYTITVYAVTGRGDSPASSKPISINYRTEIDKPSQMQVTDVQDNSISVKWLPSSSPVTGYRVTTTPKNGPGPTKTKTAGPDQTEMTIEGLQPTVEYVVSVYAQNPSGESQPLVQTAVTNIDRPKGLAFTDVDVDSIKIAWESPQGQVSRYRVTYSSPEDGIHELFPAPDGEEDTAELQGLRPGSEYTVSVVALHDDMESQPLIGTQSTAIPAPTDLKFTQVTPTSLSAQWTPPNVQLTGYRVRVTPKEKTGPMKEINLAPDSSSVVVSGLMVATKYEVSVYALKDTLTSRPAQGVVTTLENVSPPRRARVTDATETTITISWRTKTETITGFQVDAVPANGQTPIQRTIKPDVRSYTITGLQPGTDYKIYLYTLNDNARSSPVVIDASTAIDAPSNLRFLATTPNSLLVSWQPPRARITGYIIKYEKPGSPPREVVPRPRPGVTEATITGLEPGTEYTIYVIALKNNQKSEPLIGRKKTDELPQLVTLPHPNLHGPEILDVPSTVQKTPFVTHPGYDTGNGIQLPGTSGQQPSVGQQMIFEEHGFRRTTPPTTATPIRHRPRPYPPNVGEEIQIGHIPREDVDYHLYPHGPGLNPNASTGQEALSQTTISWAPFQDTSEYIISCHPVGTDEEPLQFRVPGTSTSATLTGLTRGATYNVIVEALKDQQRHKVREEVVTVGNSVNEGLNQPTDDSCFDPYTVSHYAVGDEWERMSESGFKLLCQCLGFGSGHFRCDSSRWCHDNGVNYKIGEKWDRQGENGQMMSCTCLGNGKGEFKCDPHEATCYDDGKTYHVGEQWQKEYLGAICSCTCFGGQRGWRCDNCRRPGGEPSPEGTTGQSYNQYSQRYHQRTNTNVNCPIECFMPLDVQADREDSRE

B1: Construct CC: mIL2-2x(GHHPH)-MMPcs1-2x(G4S)-mIL2Ra(1-215)-muIgG1Fc; pH heparin (protein)
chain: APTSSSTSSSTAEAQQQQQQQQQQQQHLEQLLMDLQELLSRMENYRNLKLPRMLTFKFYLPKQATELKDLQCLEDELGPLRHVLDLTQSKSFQLEDAENFISNIRVTVVKLKGSDNTFECQFDDESATVVDFLRRWIAFCQSIISTSPQGHHPHGHHPHGPLGVRGGGGGSGGGGSELCLYDPPEVPNATFKALSYKNGTILNCECKRGFRRLKELVYMRCLGNSWSSNCQCTSNSHDKSRKQVTAQLEHQKEQQTTTDMQKPTQSMHQENLTGHCREPPPWKHEDSKRIYHFVEGQSVHYECIPGYKALQRGPAISICKMKCGKTGWTQPQLTCVDEREHHRFLASEESQGSRNSSPESETSCPITTTDFPQPTETTAMTETFVLTMEYKGCKPCICTVPEVSSVFIFPPKPKDVLTITLTPKVTCVVVDISKDDPEVQFSWFVDDVEVHTAQTQPREEQFNSTFRSVSELPIMHQDWLNGKEFKCRVNSAAFPAPIEKTISKTKGRPKAPQVYTIPPPKEQMAKDKVSLTCMITDFFPEDITVEWQWNGQPAENYKNTQPIMDTDGSYFVYSKLNVQKSNWEAGNTFTCSVLHEGLHNHHTEKSLSHSPGK
modifications: Synthetic: Construct CC
notes: mIL2-2x(GHHPH)-MMPcs1-2x(G4S)-mIL2Ra(1-215)-muIgG1Fc; pH heparin
In general, EC50 refers to the concentration at which the effect is half-maximal. Regarding B1, in data set [1] (acidic pH, read-out: heparin binding EC50), the 50% effective concentration (EC50) is roughly 10 nM. Besides, the “fusion protein binding to heparin” value in data set [1] was “bound heparin in a dose-dependent manner and with higher affinity than Construct B”. Moreover, the “pH preference of heparin binding” value in data set [1] (pH 6 vs pH 7.5) is on record as “preferentially bound heparin at acidic pH”.

B2: Construct EE: mIL2-SGG-GGWSHW-MMPcs1-2x(G4S)-mIL2Ra(1-215)-muIgG1Fc; pH fibronectin (protein)
chain: APTSSSTSSSTAEAQQQQQQQQQQQQHLEQLLMDLQELLSRMENYRNLKLPRMLTFKFYLPKQATELKDLQCLEDELGPLRHVLDLTQSKSFQLEDAENFISNIRVTVVKLKGSDNTFECQFDDESATVVDFLRRWIAFCQSIISTSPQSGGGGWSHWGPLGVRGGGGGSGGGGSELCLYDPPEVPNATFKALSYKNGTILNCECKRGFRRLKELVYMRCLGNSWSSNCQCTSNSHDKSRKQVTAQLEHQKEQQTTTDMQKPTQSMHQENLTGHCREPPPWKHEDSKRIYHFVEGQSVHYECIPGYKALQRGPAISICKMKCGKTGWTQPQLTCVDEREHHRFLASEESQGSRNSSPESETSCPITTTDFPQPTETTAMTETFVLTMEYKGCKPCICTVPEVSSVFIFPPKPKDVLTITLTPKVTCVVVDISKDDPEVQFSWFVDDVEVHTAQTQPREEQFNSTFRSVSELPIMHQDWLNGKEFKCRVNSAAFPAPIEKTISKTKGRPKAPQVYTIPPPKEQMAKDKVSLTCMITDFFPEDITVEWQWNGQPAENYKNTQPIMDTDGSYFVYSKLNVQKSNWEAGNTFTCSVLHEGLHNHHTEKSLSHSPGK
modifications: Synthetic: Construct EE
notes: mIL2-SGG-GGWSHW-MMPcs1-2x(G4S)-mIL2Ra(1-215)-muIgG1Fc; pH fibronectin
With B2, the “fusion protein binding to fibronectin” value with fibronectin (acidic pH (pH 6)) is on record as “dose-dependent binding”; with fibronectin (pH 7.5 (neutral)) it was “no binding”.

B3: Construct Y: mIL2(C140S)-VRIQRKKEKMKET-MMPcs1-2x(G4S)-mIL2Ra(1-215)-muIgG1Fc; heparin (protein)
chain: APTSSSTSSSTAEAQQQQQQQQQQQQHLEQLLMDLQELLSRMENYRNLKLPRMLTFKFYLPKQATELKDLQCLEDELGPLRHVLDLTQSKSFQLEDAENFISNIRVTVVKLKGSDNTFECQFDDESATVVDFLRRWIAFSQSIISTSPQVRIQRKKEKMKETGPLGVRGGGGGSGGGGSELCLYDPPEVPNATFKALSYKNGTILNCECKRGFRRLKELVYMRCLGNSWSSNCQCTSNSHDKSRKQVTAQLEHQKEQQTTTDMQKPTQSMHQENLTGHCREPPPWKHEDSKRIYHFVEGQSVHYECIPGYKALQRGPAISICKMKCGKTGWTQPQLTCVDEREHHRFLASEESQGSRNSSPESETSCPITTTDFPQPTETTAMTETFVLTMEYKIEGRMDGCKPCICTVPEVSSVFIFPPKPKDVLTITLTPKVTCVVVDISKDDPEVQFSWFVDDVEVHTAQTQPREEQFNSTFRSVSELPIMHQDWLNGKEFKCRVNSAAFPAPIEKTISKTKGRPKAPQVYTIPPPKEQMAKDKVSLTCMITDFFPEDITVEWQWNGQPAENYKNTQPIMDTDGSYFVYSKLNVQKSNWEAGNTFTCSVLHEGLHNHHTEKSLSHSPGK
modifications: Synthetic: Construct Y
notes: mIL2(C140S)-…-MMPcs1-2x(G4S)-mIL2Ra(1-215)-muIgG1Fc; heparin
As for B3, the “fusion protein binding to heparin” value in data set [1] was “bound heparin in a dose-dependent manner and with higher affinity than Construct B”.

B4: Construct NN: mIL2-2x(SG4)-MMPcs1-2x(GHHPH)-mIL2Ra(1-215)-muIgG1Fc; pH heparin (protein)
chain: APTSSSTSSSTAEAQQQQQQQQQQQQHLEQLLMDLQELLSRMENYRNLKLPRMLTFKFYLPKQATELKDLQCLEDELGPLRHVLDLTQSKSFQLEDAENFISNIRVTVVKLKGSDNTFECQFDDESATVVDFLRRWIAFCQSIISTSPQSGGGGSGGGGGPLGVRGGHHPHGHHPHELCLYDPPEVPNATFKALSYKNGTILNCECKRGFRRLKELVYMRCLGNSWSSNCQCTSNSHDKSRKQVTAQLEHQKEQQTTTDMQKPTQSMHQENLTGHCREPPPWKHEDSKRIYHFVEGQSVHYECIPGYKALQRGPAISICKMKCGKTGWTQPQLTCVDEREHHRFLASEESQGSRNSSPESETSCPITTTDFPQPTETTAMTETFVLTMEYKGCKPCICTVPEVSSVFIFPPKPKDVLTITLTPKVTCVVVDISKDDPEVQFSWFVDDVEVHTAQTQPREEQFNSTFRSVSELPIMHQDWLNGKEFKCRVNSAAFPAPIEKTISKTKGRPKAPQVYTIPPPKEQMAKDKVSLTCMITDFFPEDITVEWQWNGQPAENYKNTQPIMDTDGSYFVYSKLNVQKSNWEAGNTFTCSVLHEGLHNHHTEKSLSHSPGK
modifications: Synthetic: Construct NN
notes: mIL2-2x(SG4)-MMPcs1-2x(GHHPH)-mIL2Ra(1-215)-muIgG1Fc; pH heparin
For the molecule B4, the “fusion protein binding to heparin” value in data set [1] was “mimicked the Construct CC binding profile”.

B5: Construct B: mIL2-2x(SG4)-MMPcs1-2x(G4S)-mIL2Ralpha(1-215)-mIgG1Fc; no TME (protein)
chain: APTSSSTSSSTAEAQQQQQQQQQQQQHLEQLLMDLQELLSRMENYRNLKLPRMLTFKFYLPKQATELKDLQCLEDELGPLRHVLDLTQSKSFQLEDAENFISNIRVTVVKLKGSDNTFECQFDDESATVVDFLRRWIAFCQSIISTSPQSGGGGSGGGGGPLGVRGGGGGSGGGGSELCLYDPPEVPNATFKALSYKNGTILNCECKRGFRRLKELVYMRCLGNSWSSNCQCTSNSHDKSRKQVTAQLEHQKEQQTTTDMQKPTQSMHQENLTGHCREPPPWKHEDSKRIYHFVEGQSVHYECIPGYKALQRGPAISICKMKCGKTGWTQPQLTCVDEREHHRFLASEESQGSRNSSPESETSCPITTTDFPQPTETTAMTETFVLTMEYKGCKPCICTVPEVSSVFIFPPKPKDVLTITLTPKVTCVVVDISKDDPEVQFSWFVDDVEVHTAQTQPREEQFNSTFRSVSELPIMHQDWLNGKEFKCRVNSAAFPAPIEKTISKTKGRPKAPQVYTIPPPKEQMAKDKVSLTCMITDFFPEDITVEWQWNGQPAENYKNTQPIMDTDGSYFVYSKLNVQKSNWEAGNTFTCSVLHEGLHNHHTEKSLSHSPGK
modifications: Synthetic: Construct B polypeptide sequence: m IL2-2x(SG4) MMPcs1 2x (G4S) IL2Ralpha mIgG1 Fc
notes: mIL2-2x(SG4)-MMPcs1-2x(G4S)-mIL2Ralpha(1-215)-mIgG1Fc; no TME
Consider B5, for which, in data set [1], the “heparin binding EC50 value, fold higher than Construct CC” value was “greater than 100 fold” and the “fusion protein binding to heparin” value was “much weaker”. Moreover, the “fusion protein binding to fibronectin” value in the data set with fibronectin (acidic pH (pH 6)) is on record as “No significant binding”. Also, in the data set with fibronectin (pH 7.5 (neutral)), the “fusion protein binding to fibronectin” value is given as “No significant binding”.
